# Values of other authors in publication PMC3946517.
# Assays:
# [1] = biological target: preMADH (Paracoccus denitrificans) (UniProt P22619); test: stopped-flow kinetics
# [2] = biological target: quinol MADH (Paracoccus denitrificans) (UniProt P22619); test: stopped-flow kinetics
substance,measurement,setting,value
MauG (from UniProt Q51658),Kd,[1],< 1.5 µM
same,Kd,[2],11.2 µM
